According to US20240366814A1 (University of California, published 2024):

T1: CUB domain-containing protein 1 (CDCP1), human, on the surface of human bladder cancer cell lines (human, UniProt Q9H5V8 30-836)
T1 construct: whole, on cells; Endogenous CDCP1 on UMUC3, TCC SUP, 5637, UMUC9 and other bladder cancer lines; also called SIMA135; CD318
T1 sequence (looked up): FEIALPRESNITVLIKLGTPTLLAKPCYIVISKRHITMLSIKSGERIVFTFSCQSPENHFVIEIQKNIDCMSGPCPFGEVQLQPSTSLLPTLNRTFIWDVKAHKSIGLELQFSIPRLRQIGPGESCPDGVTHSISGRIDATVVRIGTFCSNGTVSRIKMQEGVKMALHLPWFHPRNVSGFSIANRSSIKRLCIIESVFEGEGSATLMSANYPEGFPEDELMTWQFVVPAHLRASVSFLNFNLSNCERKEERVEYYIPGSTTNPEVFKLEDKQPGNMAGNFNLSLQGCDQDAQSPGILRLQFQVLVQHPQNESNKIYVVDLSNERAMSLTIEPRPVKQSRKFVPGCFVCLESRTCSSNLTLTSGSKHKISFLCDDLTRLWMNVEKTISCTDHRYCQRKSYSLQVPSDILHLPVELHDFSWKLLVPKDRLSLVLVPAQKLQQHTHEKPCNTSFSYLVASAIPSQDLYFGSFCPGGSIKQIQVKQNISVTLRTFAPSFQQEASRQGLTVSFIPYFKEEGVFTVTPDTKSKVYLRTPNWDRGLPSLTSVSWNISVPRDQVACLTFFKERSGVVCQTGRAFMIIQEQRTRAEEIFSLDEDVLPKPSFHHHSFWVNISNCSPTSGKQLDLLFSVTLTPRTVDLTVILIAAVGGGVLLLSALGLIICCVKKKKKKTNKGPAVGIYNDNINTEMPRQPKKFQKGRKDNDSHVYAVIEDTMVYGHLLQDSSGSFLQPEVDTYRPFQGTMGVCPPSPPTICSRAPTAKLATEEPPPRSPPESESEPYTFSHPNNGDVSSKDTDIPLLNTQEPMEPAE


Tests used:
[1] = target: T1, CUB domain-containing protein 1 …; assay: flow cytometry on human bladder cancer cell lines (5637, HT-1197, HT-1397, UMUC9, 639V, T24, 253JBV, UMUC3, TCCSUP)
Experimental: Flow Cytometry. Cells were trypsinized and washed, and then incubated with either a PE-anti-CDCP1 antibody (Biolegend #324017, 1:100) or 4A06 for 30 minutes on ice. For cells incubated with unlabeled 4A06, after the 30 min incubation, the cells were washed with PBS multiple times and placed in a fluorophore conjugated secondary antibody solution for 30 minutes on ice (1:1000, 109-546-097, Jackson ImmunoResearch). Cells were collected and washed before being placed in PBS and passed through a cell strainer. Cells were analyzed using an Attune NxT Flow and data were analyzed using FlowJo software.
(§1) CDCP1 protein expression in human bladder cancer cell lines representing luminal (5637, HT-1197, HT-1397, UMUC9) and basal subtypes (639V, T24, 253JBV, UMUC3, TCCSUP) was evaluated. […] UMUC3 and TCC SUP had the highest expression of CDCP1, while UMUC9 and 253 JBV had the lowest relative level. Cell surface receptor numbers were further quantified using ¹²⁵I-labeled 4A06 antibody.

[2] = target: T1, CUB domain-containing protein 1 …; assay: saturation binding of 125I-4A06 on 5637 cells
Experimental: (§2) Saturation binding assays. ¹²⁵I-4A06 was prepared as previously reported (Moroz et al., Clin Cancer Res, 6(14):3608-3615, 2020). The final yield of purified ¹²⁵I-4A06 was ˜60% (specific activity ˜1 μCi/μg) and purity was >99%. UMUC3, TCC SUP, 5637, and UMUC9 cells (0.6×10⁶ cell/well) were seeded on 12-well plates using DMEM (10% FBS). The cells were washed with PBS for the saturation binding assay. Total binding of ¹²⁵I-4A06 was determined by adding it to cell suspensions at seven concentrations from 0.025 nM to 10 nM. Non-specific binding was determined by adding 1000× cold 4A06 to ¹²⁵I-4A06/cell mixtures at three concentrations. Cells were incubated with ˜0.5 μCi ¹²⁵I-4A06 at room temperature for 1 hr, washed with PBS, and lysed by adding 1.0 M NaOH. The bound and unbound radioactive fractions were collected and measured on a Hidex Gamma counter (Turku, FI). Bmax was calculated using Prism v8.0.
as §1

[3] = target: T1, CUB domain-containing protein 1 …; assay: saturation binding of 125I-4A06 on UMUC9 cells
Experimental: as §2, §1

[4] = target: T1, CUB domain-containing protein 1 …; assay: saturation binding of 125I-4A06 on TCC SUP cells
Experimental: as §2, §1

[5] = target: T1, CUB domain-containing protein 1 …; assay: saturation binding of 125I-4A06 on UMUC3 cells
Experimental: as §2, §1

binding result [1]	Kd [2] [pM]	Kd [3] [pM]	Kd [4] [pM]	Kd [5] [pM]	Binder
binds	–	–	–	–	recombinant monoclonal antibody 4A06 (IgG1 format) (antibody, V domains shown, Used unlabelled in flow cytometry, detected with a fluorophore-conjugated secondary antibody; also called CDCP1-002; 4A06 antibody) VH: EVQLVESGGGLVQPGGSLRLSCAASGFNLSYYYIHWVRQAPGKGLEWVASIYSSSSYTSYADSVKGRFTISADTSKNTAYLQMNSLRAEDTAVYYCARAYYGFDYWGQGTLVTVSS VL: DIQMTQSPSSLSASVGDRVTITCRASQSVSSAVAWYQQKPGKAPKLLIYSASSLYSGVPSRFSGSRSGTDFTLTISSLQPEDFATYYCQQSYYYYPITFGQGTKVEIK
–	284	181	583	1840	125I-labeled 4A06 antibody (antibody, V domains shown, radioiodinated with iodine-125; labelled residues not stated, specific activity ~1 uCi/ug, purity >99%); also called ^125I-4A06; 125I-4A06) VH: EVQLVESGGGLVQPGGSLRLSCAASGFNLSYYYIHWVRQAPGKGLEWVASIYSSSSYTSYADSVKGRFTISADTSKNTAYLQMNSLRAEDTAVYYCARAYYGFDYWGQGTLVTVSS VL: DIQMTQSPSSLSASVGDRVTITCRASQSVSSAVAWYQQKPGKAPKLLIYSASSLYSGVPSRFSGSRSGTDFTLTISSLQPEDFATYYCQQSYYYYPITFGQGTKVEIK
